Measured values taken from patent publication US20230025129A1 (KYMAB, published 2023).

T1: human matriptase-2 ECD protein his tag (human, UniProt Q8IU80 78-811)
T1 sequence: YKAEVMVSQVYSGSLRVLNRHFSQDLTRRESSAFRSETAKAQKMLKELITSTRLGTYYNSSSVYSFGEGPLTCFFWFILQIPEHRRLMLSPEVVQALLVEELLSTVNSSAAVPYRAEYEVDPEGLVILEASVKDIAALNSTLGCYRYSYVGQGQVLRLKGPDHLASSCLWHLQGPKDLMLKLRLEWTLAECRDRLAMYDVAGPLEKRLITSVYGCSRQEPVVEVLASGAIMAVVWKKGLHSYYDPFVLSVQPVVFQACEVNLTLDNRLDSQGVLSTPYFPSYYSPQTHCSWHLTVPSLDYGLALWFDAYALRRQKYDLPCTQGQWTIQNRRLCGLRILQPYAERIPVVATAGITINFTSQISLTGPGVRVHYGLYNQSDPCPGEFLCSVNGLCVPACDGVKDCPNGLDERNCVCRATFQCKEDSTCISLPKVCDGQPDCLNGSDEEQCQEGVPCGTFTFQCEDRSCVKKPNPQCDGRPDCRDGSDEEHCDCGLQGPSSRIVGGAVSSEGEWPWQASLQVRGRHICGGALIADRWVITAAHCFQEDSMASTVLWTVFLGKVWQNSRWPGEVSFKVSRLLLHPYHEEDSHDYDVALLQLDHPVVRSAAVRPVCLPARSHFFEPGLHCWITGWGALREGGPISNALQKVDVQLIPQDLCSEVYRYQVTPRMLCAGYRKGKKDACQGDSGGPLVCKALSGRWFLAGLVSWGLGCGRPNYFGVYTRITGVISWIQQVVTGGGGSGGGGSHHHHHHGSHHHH

T2: mouse matriptase-2 ECD protein his tag (mouse, UniProt Q9DBI0 80-811)
T2 sequence: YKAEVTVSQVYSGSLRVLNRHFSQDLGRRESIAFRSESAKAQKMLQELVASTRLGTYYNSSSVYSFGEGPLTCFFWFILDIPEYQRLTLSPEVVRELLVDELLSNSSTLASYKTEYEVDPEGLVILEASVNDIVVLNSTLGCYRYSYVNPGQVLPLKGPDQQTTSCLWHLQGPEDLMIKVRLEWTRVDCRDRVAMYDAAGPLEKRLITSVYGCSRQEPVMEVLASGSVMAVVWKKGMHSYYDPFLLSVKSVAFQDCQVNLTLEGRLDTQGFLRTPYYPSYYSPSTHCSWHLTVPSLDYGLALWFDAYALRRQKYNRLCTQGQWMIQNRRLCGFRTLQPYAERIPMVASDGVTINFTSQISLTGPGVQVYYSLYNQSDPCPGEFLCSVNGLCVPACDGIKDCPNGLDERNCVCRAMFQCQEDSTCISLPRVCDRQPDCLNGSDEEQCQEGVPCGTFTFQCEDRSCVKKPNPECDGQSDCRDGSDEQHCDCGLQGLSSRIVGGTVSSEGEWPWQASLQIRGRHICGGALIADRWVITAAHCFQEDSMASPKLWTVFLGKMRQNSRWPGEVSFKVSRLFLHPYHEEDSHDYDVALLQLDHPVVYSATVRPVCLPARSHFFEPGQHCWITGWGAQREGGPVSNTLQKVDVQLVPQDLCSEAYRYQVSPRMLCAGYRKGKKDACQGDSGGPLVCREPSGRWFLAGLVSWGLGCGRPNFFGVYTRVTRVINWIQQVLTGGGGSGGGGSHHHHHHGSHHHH

T3: human MTP-2 expressed on HEK293 cells (human, UniProt Q8IU80 1-811)
T3 sequence: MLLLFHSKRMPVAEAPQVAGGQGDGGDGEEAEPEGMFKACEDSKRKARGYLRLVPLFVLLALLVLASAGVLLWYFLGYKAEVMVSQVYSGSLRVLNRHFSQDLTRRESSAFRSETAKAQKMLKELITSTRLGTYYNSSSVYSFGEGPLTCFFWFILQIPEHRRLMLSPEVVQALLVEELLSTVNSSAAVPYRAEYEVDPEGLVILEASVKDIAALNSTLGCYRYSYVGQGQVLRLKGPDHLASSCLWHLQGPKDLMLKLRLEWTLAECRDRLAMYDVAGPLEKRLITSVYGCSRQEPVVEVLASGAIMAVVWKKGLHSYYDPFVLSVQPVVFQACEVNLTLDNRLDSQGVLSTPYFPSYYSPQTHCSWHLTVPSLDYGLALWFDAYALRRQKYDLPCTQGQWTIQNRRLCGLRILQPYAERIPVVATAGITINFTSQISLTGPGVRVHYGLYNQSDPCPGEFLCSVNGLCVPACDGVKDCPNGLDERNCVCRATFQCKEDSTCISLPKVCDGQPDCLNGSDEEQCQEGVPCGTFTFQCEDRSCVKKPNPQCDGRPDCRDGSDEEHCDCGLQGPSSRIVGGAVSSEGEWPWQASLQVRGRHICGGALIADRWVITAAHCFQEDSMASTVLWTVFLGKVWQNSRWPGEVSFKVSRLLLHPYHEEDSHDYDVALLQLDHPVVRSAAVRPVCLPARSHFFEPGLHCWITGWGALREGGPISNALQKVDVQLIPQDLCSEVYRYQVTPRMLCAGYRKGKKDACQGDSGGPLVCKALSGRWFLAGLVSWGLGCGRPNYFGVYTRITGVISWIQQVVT

T4: human matriptase-2 mask ECD protein his tag (human, UniProt Q8IU80 78-576)
T4 construct: MTP-2 ECD without the serine protease domain, with C-terminal linker and His tag; also called headless huMTP-2 ECD 78-576 aa; headless human MTP-2 ECD
T4 sequence: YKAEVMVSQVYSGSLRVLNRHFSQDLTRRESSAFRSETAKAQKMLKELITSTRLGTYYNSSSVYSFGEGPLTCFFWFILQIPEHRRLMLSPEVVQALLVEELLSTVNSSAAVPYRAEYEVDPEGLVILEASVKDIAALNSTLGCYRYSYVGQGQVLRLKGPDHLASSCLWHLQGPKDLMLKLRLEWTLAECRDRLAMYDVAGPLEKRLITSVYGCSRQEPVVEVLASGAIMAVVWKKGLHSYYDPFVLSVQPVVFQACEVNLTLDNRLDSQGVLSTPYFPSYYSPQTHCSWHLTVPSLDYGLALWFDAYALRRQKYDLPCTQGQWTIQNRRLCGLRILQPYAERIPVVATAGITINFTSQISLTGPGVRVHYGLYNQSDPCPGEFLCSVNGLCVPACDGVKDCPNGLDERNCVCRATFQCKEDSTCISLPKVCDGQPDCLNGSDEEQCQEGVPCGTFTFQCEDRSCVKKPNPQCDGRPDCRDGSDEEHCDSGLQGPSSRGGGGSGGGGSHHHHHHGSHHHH


Assays:
[1] = biological target: T1, human matriptase-2 ECD protein his tag; test: cell-based or functional assay
[2] = biological target: T2, mouse matriptase-2 ECD protein his tag; test: cell-based or functional assay
[3] = biological target: T3, human MTP-2 expressed on HEK293 cells; test: cell-based or functional assay
[4] = biological target: T4, human matriptase-2 mask ECD protein his …; test: SPR, antibody captured, headless ECD as analyte
Experimental: (§1) Off-rate screening was performed by surface plasmon resonance (SPR), using a Biacore 8K system (GE Healthcare). Anti-human Fc mix (˜1000 RU) were immobilised in both active and reference channels in HBS-P+ buffer (GE BR100671) pH 7.4. Anti-MTP-2 hulgG4PE antibodies were then captured for 60 sec at 10 μl/min at 1 μg/ml concentration (approximatively 35 and 50 RU were captured) only on the active channel. MTP-2 ECD protein analytes were then injected (at 100, 25, 6.25, 1.56 and 0 nM concentrations) for 120 sec (association time) at 30 μl/min and dissociation monitored for 600 sec. Multiple cycle kinetics mode was used with all 8 channels being used. Reference and background were subtracted from the sensorgrams for each antibody and data was fitted using a 1:1 interaction model in the Biacore evaluation software. Rmax, ka, kd globally fitted, RI=0.
Binding was also assessed using the above SPR method with “headless” huMTP-2 ECD 78-576 aa instead of the full ECD. Headless ECD corresponds to the MTP-2 ECD without the serine protease domain.

[5] = biological target: T1, human matriptase-2 ECD protein his tag; test: SPR (Biacore 8K), huIgG4PE captured on anti-human Fc, MTP-2 ECD as analyte, 1:1 fit
Experimental: as §1

[6] = biological target: T2, mouse matriptase-2 ECD protein his tag; test: as above
Experimental: as §1

Binder	Inhibition enzymatic activity human MTP2 protein (IC50) [1] [nM]	Inhibition enzymatic activity mouse MTP2 protein (IC50) [2] [nM]	Inhibition enzymatic activity human MTP2 on cells (IC50) [3] [nM]	binding result [4]	Binding Late top conc [5]	Kd [5] [nM]	Stoichiometry [5]	koff [5] [s⁻¹]	kon [5] [M⁻¹ s⁻¹]	Binding Late top conc [6]	Kd [6] [nM]	Stoichiometry [6]	koff [6] [s⁻¹]	kon [6] [M⁻¹ s⁻¹]
NORI-009 (antibody, human IgG4 S228P, lambda, V domains shown, human IgG4PE, lambda) VH: EVQLVESGGGLVQPGRSLRLSCAASGFTFNDHVIYWVRQVPGKGLEWVSTISWNSDTIAYADSVKGRFTISRDNAKNALYLQMNSLRTEDTALYYCAREKDGDFYYDYFAMDVWGQGTTVTVSS VL: QSALTQPPSASGSPGQSVTLSCTGTSSDVGYYNYVSWYLQHPGKAPKLMIYEVSKRPSGVPDRFSGSKSANTASLTVSGLQAEDEADYYCSSYAGSNKVVFGGGTKVTVLG	55.5	17.6	5.68	no binding (tested: analyte up to 100 nM)	8.6	15	0.48	0.00112	74800	5	19.6	0.47	0.000693	35400
NORI-010 (antibody, human IgG4 S228P, lambda, human IgG4PE, lambda) heavy: not shown light: QSALTQPPSASGSPGQSVTISCTGTSSDVGFYNFVSWYQQHPDKAPKVMIYEVSKRPSGVPDRFSGSKSGNTASLTVSGLQAEDEADYYCSSYAGSNKVVFGGGTKLTVLGQPKAAPSVTLFPPSSEELQANKATLVCLISDFYPGAVTVAWKADSSPVKAGVETTTPSKQSNNKYAASSYLSLTPEQWKSHRSYSCQVTHEGSTVEKTVAPTECS	17.7	9.76	3.51	no binding (tested: analyte up to 100 nM)	7.9	10.5	0.63	0.000442	42300	4.5	24.4		0.000324	13300
NORI-012 (antibody, human IgG4 S228P, lambda, V domains shown, human IgG4PE, lambda) VH: EVQLVESGGGLVQPGRSLRLSCAASGFTFDDHVMYWVRQAPGKGLEWVSGISWNSDTIGYADAVKGRFTISRDNAKNVLYLHMNSLRPEDTALYYCAREKDGDFYYNYFVMDVWGQGTTVTVSP VL: QSALTQPPSASGSPGQSVTISCTGTSSDVGFYNFVSWYQQHPDKAPKVMIYEVSKRPSGVPDRFSGSKSGNTASLTVSGLQAEDEADYYCSSYAGSNKVVFGGGTKLTVLG	21.2	11.5	4.26	no binding (tested: analyte up to 100 nM)	8.5	9.13	0.6	0.000427	46700	4.6	29	1.08	0.000337	11600
NORI-033 (antibody, human IgG4 S228P, lambda, V domains shown) VH: QLQLQESGPGLVKPSETLSLTCTVSGDSISSHTYWWGWIRQPPGKGLEWIGSMFYSGSTYYNPSLKSRVVISVDTSRNQFSLKVRSVTAADTAVFYCARHNNWGMENYFDDWGQGTLVTVSS VL: SYALTQPPSVSVSPGQTARITCSADALPDQYGYWYQQKPGQAPVLVIYKDSERPSGIPERFSGSSSGTTVTLTISGVQAEDEADYYCQSADSSGSYVVFGGGTKLTVLG	2.84	1.73	0.206											
